Measurements reported in patent US20200377551A1 (WAKE FOREST UNIVERSITY HEALTH SCIENCES, published 2020).

Target: T1, Tom20 (UniProt Q15388 1-145)
T1 construct: Endogenous mitochondrial protein used as a specificity control in the MAVS co-IP
T1 sequence (looked up): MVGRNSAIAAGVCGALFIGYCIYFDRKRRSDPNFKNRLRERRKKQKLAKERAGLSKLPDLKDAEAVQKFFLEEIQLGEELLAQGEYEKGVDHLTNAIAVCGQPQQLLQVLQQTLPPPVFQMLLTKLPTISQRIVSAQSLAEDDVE
Assay: co-immunoprecipitation with MAVS antibody from HEK293 lysates, immunoblot (FIG. 2E)

B1: mitochondrial antiviral-signaling protein (MAVS) (other)
chain: MPFAEDKTYKYICRNFSNFCNVDVVEILPYLPCLTARDQDRLRATCTLSGNRDTLWHLFNTLQRRPGWVEYFIAALRGCELVDLADEVASVYESYQPRTSDRPPDPLEPPSLPAERPGPPTPAAAHSIPYNSCREKEPSYPMPVQETQAPESPGENSEQALQTLSPRAIPRNPDGGPLESSSDLAALSPLTSSGHQEKDTELGSTHTAGATSSLTPSRGPVSPSVSFQPLARSTPRASRLPGPTGSVVSTGTSFSSSSPGLASAGAAEGKQGAESDQAEPIICSSGAEAPANSLPSKVPTTLMPVNTVALKVPANPASVSTVPSKLPTSSKPPGAVPSNALTNPAPSKLPINSTRAGMVPSKVPTSMVLTKVSASTVPTDGSSRNEETPAAPTPAGATGGSSAWLDSSFENRGLGSELSKPGVLASQVDSPFSGCFEDLAISASTSLGMGPCHGPEENEYKSEGTFGIHVAENPSIQLLEGNPGPPADPDGGPRPQADRKFQEREVPCHRPSPGALWLQVAVTGVLVVTLLVVLYRRRLH
notes: Endogenous full-length MAVS in HEK293 lysates or on isolated mitochondria; also called MAVS protein
Question: Does B1 bind?
Answer: Result: no binding
